Measurements published in patent US10822385B2, “EGF(A) analogues with fatty acid substituents” (Novo Nordisk A/S, priority 2016, dated 2020).

Molecular target: T1, hPCSK9 (Homo sapiens, UniProt Q8NBP7)
T1 construct: purchased Sino Biologicals, China; host or cells: injected into BalBC or NMRI mice
Assay: hPCSK9 challenge model, hepatic LDL-R expression in mice (Western Blot)
Type: in vivo, mouse
Details: inhibitor 22 nmol/kg, hPCSK9 0.4 mg/kg i.v., healthy control = 100%, hPCSK9 alone = 0%
Protocol: The aim of this study was to show the change in the LDL receptor expression level in mouse liver in response to inhibiting the action of intravenously injected hPCSK9 with an anti-PCSK9 peptide.
Healthy male BalBC or NMRI mice (Charles River, Germany) are injected with an anti-PCSK9 peptide, either s.c. or i.v. 15-120 minutes before injecting hPCSK9 (Sino Biologicals, China) intravenously in the tail vein at a dose of 0.4 mg/kg. Sixty minutes after the injection of hPCSK9, the animals are anaesthetised in isoflurane and euthanised by cervical dislocation. The liver is then quickly excised and snapfrozen in liquid nitrogen. The livers are kept at −80 degrees celsius until analysis.
Equal protein transfer was confirmed by Ponceau S (Sigma, P7170) staining of the membranes and the membranes were further blocked in blocking buffer (TBS-T, 2% Tween). […] Quantitative analysis of chemiluminescent signals from Western blots was done with MultiGauge software (Fujifilm).
“Vehicle-vehicle” is the group of healthy controls (baseline level), “vehicle-hPCSK9” is the group injected with hPCSK9 alone.
In Table 8, data are presented as percentage change in relation to the window between baseline level in healthy control animals (set to 100%) and the level after down regulation by hPCSK9 alone (set to 0%).

T1 sequence (Q8NBP7 153-692): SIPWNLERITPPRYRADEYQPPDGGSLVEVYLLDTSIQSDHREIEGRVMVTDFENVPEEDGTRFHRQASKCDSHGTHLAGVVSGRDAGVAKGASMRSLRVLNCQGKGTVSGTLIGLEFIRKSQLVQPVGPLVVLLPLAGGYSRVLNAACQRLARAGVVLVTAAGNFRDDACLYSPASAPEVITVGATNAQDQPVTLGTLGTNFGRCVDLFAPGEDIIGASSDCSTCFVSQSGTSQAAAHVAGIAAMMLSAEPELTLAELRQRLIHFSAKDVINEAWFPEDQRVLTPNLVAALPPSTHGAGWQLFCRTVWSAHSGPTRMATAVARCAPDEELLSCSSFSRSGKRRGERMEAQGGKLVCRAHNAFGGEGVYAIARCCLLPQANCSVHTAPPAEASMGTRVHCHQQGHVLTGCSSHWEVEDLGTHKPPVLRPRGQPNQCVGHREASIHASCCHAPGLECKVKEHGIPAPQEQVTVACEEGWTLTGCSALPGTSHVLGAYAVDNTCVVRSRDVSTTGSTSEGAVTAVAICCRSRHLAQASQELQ

Percentage of baseline (hepatic LDL-R expression): 157%
Substance: Alirocumab: anti-PCSK9 antibody, control molecule in the hPCSK9 challenge model
